Earlier results on four substances are cited in PMC10889394.

By Ki is commonly meant the dissociation constant of the complex between target and ligand, obtained from inhibition or displacement.

For one series, the target named is TIMP-2 (Homo sapiens) (UniProt P16035).
The target of series [1] is cystatin E (Homo sapiens) (UniProt Q15828).
The target of series [2] is recombinant hirudin variant 1 (Hirudo medicinalis) (UniProt P01050).
Series [3] addresses SFTI-TCTR-N12N14 (synthetic construct).
Series [4] addresses SFTI-1 (Helianthus annuus) (UniProt Q4GWU5).

β-trypsin, sequence (P00760 149-246): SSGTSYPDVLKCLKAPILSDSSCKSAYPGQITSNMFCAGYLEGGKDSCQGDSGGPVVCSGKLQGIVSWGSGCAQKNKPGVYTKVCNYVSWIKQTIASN
TIMP-2 (Homo sapiens), sequence (P16035 27-220): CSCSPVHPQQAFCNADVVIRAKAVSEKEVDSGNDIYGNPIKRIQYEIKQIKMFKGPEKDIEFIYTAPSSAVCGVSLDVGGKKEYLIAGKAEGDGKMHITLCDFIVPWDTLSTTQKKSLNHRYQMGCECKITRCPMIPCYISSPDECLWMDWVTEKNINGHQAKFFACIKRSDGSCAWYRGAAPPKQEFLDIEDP
cystatin E (Homo sapiens), sequence (Q15828 29-149): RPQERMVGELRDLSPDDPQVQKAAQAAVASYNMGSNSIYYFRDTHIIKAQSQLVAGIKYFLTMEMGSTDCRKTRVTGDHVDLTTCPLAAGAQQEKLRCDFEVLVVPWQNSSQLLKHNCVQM

As for “MMP-14 catalytic domain (from UniProt P50281)”, in the series with TIMP-2 (Homo sapiens), the Ki was 104 pM.

Take legumain (from UniProt Q99538): in series [1], the inhibition constant (Ki) is 11 pM. For thrombin (from UniProt P00734), the Ki in series [2] was 0.18 pM.

For the substance β-trypsin (from UniProt P00760), the Ki in series [3] was 700 pM; in series [4] it was 17 pM.
